Data reported in patent publication US20260209387A1, “SINGLE-DOMAIN ANTIBODY FOR INHIBITION OF NEUTROPHIL ELASTASE ACTIVITY” (UNIVERSITE DE LIEGE, priority 2023, published 2026).
Peptide text beside a SMILES is read from it. * marks the point of attachment. MeOSuc = COC(=O)CCC(=O)*; CH2Cl = ClC*

Tests used:
hNE = target: T1, hNE (Homo sapiens, UniProt P08246); test: hNE inhibition, hydrolysis of elastin (Elastin-CongoRed); format: biochemical
T1 construct: purchased Elastin Products Company (EPC)
T1 sequence (P08246 30-247): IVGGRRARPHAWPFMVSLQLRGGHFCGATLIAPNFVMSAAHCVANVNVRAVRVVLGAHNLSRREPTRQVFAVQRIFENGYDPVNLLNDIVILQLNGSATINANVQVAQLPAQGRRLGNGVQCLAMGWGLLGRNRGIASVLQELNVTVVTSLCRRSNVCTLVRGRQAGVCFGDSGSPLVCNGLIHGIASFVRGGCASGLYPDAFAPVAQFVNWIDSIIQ
Protocol: 1.6.2. Inhibition of the hydrolysis of elastin, a natural substrate of hNE. […] The samples were incubated for 16 hours at 37° C. with orbital shaking (900 rpm). The samples were then centrifuged at 90′000 g for 30 minutes at 4° C. to separate the insoluble Elastin from the digested and soluble molecule fragments. The soluble fraction was transferred into a 384-wells clear plate and the absorbance of Congo-red was measured at 495 nm in a SpectraMax M2e Microplates Reader (Molecular Devices, California, USA). The absorbance of the samples at different inhibitor: hNE molar ratios was compared to that measured in the absence of inhibitor, to determine the residual hNE activity. A sample of Elastin-Congo red without elastase was used as blank.

[1] = test system: hNE-induced alveolar-capillary damage; test: hNE-induced acute lung injury mouse model; format: in vivo, mice; conditions: nasal instillation 15 min prior to hNE 25 μg; molar ratio Nb/HNE 4/1
Protocol: The in vivo efficacy of NbE201 was determined using a mouse model of acute lung injury induced by nasal instillation of HNE (L agente et al., 2009, American Thoracic Society International Conference Abstracts. (American Thoracic Society), A5668. doi: 10.1164/ajrccm-conference.2009.179.1_MeetingAbstracts.A5668). […]
It was determined with the hemoglobin assay kit (Sigma) and performed according to the manufacturer's instructions. […] A measurement of the optical density at 400 nm allowed the quantification of this stable complex. […]
Histological sections of the lung were digitized using a panoramic scan 2 (3[…]). […] This semi-automated analysis made it possible to quantify the damaged alveolar surface. […] The percentage of injured surface was determined by the ratio: % injured area=(injured area/alveolar area)×100

[2] = target: T2, human neutrophil elastase (human, UniProt P08246 30-247, glycans (NAG-NAG-FUC) at N109 and N204, chymotrypsinogen numbering, seen in the crystal); test: capture of hNE on streptavidin magnetic beads via biotinylated NbE34 (phage panning)
T2 construct: Purified hNE bought from Elastin Products Company; In the crystal, density is defined for I1 to Q218; also called hNE; HNE
T2 sequence: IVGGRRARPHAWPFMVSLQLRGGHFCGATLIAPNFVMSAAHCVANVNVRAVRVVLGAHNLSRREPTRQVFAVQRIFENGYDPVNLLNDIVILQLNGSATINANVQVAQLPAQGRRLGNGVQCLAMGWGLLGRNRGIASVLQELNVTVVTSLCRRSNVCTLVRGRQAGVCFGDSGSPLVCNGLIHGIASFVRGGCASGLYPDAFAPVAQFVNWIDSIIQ
Protocol: The recovery of the beads after each step was carried out on a magnetic stand for 1.5 ml Eppendorf tubes for two minutes. All the incubation steps took place at room temperature and in a shaker with vertical rotation. Washing steps were carried out with 500 μl phosphate-buffered saline solution with a detergent solution of 0.01% (PBST, PBS with 0.01%, % v/v, Tween 20). First, 0.04 mg of beads were functionalized with 4 μg of chemically biotinylated NbE34 in 1 ml of PBS. After 5 washings, the beads were incubated with 5 μg of hNE in 500 μL of PBS. A negative control tube with magnetic beads functionalized with NbE34 but without hNE was also prepared. Then, the beads in each tube were incubated in 500 μl of blocking buffer. The blocking buffer was casein 0.1% (% w/v), bovine serum albumin 0.1% (% w/v) or protein free-blocking buffer (ThermoFisher Scientific, United States) in rounds 1, 2 and 3, respectively. In the next step, 2×10¹¹ phages from the library were incubated in the positive and the negative tubes and incubated for 1 hour. The beads were washed at least 10 times with PBST (PBS containing 0.05%, % v/v, Tween 20), previous to the elution of phages with 200 μl of triethanolamine (TEA) pH 11 for 10 minutes and neutralization with 200 μl of trisaminomethane hydrochloric acid (Tris-HCl) 1M pH8. […]

[3] = Physical stress (nebulization, agitation, freeze/thaw): concentration by A280 nm before/after centrifugation; format: physicochemical; conditions: for Initial concentration percentage after centrifugation: 10 000 g 10 min
Protocol: A 0.25 mg/ml solution of NbE201, NbE201-PEG10 or NbE201-PEG40 was prepared and divided in order to apply the following conditions: control, 1 or 4 h of agitation with a magnetic bar, nebulization, 5 or 10 freeze/thaw cycles.
2.3.1 Stability towards agitation. 100 μl of a 0.25 mg/ml ISVDs solution were agitated in a 1 ml glass vial with a 2×5 mm magnetic bar (VWR, Radnor, USA) at 200 rpm during 1 or 4 hours.
2.3.2 Stability towards Nebulization. 300 μl of a 0.25 mg/ml ISVDs solution were nebulized with a MeSH nebulizer (InnoSpire Go, Phillips, Amsterdam, The Netherlands).
2.3.3 Stability towards freezing/thawing. 100 μl of a 0.25 mg/ml ISVDs solution underwent 5 or 10 freeze/thaw (F/T) cycles. Freezing was performed in a −20° C. freezer and thawing was performed at RT.
2.3.4 Concentration measurements. Concentrations and UV spectra were measured by spectrophotometry (NanoDrop 2000/2000c spectrophotometer, ThermoFisher). Concentrations were determined based on the absorbance at 280 nm. NbE201 and NbE201-Cter mass extinction coefficients applied to the measurements were 1.888 and 1.716 (mg/mL)^−1 cm^−1 respectively. Regarding the ISVDs exposed to physical stresses, the concentration was read before and after centrifugation at 10 000 g at 4° C. for 10 min.

[4] = Aggregates detection by Nanoparticle Tracking Analysis; format: physicochemical; conditions: 0.25 mg/ml, after nebulization
Protocol: 2.3.5 Aggregates Detection. Protein aggregates were visualized by Nanoparticle Tracking Analysis (NTA) (ZetaView, 220 Twin Laser, Particle Metrix, Ammersee, Germany), a technique used for measuring single particle size and concentration. NbE201, NbE201-PEG10 and NbE201-PEG40 solutions (0.25 mg/ml) were analysed before and after nebulization. 11 positions were analysed for which following parameters were used: • Laser wavelength: 488 nm • Scatter, no fluorescence • Sensitivity: 80 • Shutter: 100

[5] = target: T3, proteolytic (elastase) activity of cystic fibrosis patient sputa (Homo sapiens, UniProt P08246); test: Sputum proteolytic activity inhibition, cystic fibrosis sputa; format: biochemical; conditions: exposure time 0
T3 construct: Sputa from patients with cystic fibrosis, COPD or ciliary diskenisia above 18 years old were collected; from tissue; host or cells: expectorated sputum of patients with cystic fibrosis, COPD or ciliary dyskinesia
T3 sequence (P08246 30-267): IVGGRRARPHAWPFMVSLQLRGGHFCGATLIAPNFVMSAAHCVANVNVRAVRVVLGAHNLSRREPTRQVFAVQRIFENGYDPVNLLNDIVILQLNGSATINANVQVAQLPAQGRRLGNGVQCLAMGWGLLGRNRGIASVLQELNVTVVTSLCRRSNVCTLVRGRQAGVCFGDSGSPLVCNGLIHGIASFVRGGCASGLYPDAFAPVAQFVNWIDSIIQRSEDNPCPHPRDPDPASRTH
Protocol: 2.2.2 Evaluation of the proteolytic activity inhibition in CF, COPD and ciliary diskenisia sputa. […] Sputa collection procedures were evaluated by the local ethic committee (comité d'Ethique Hospitalo-Facultaire des Cliniques universitaires Saint-Luc) and approved under the Belgian registration number B4032021000071.
Sputum proteolytic activity was assessed by following with a spectrophotometer the absorbance at 410 nm of suc-Ala-Ala-Pro-Val-pNA degradation, the chromogenic hNE substrate. Sputa were classified as mucoid, muco-purulent or purulent (Serisier et al., 2009, Respir Res, 10 (1): 63. doi: 10.1186/1465-9921-10-6). According to the experiment, 10 to 20 mg of sputum were weighted in a 96-well plate. ISVDs were then added to the sputum samples and pre-incubated at 37° C. during different periods of time. The hNE substrate was diluted to a concentration of 1 mM in a tris buffer (0.1M tris, 0.5M NaCl, 0.01% Sodium azide (NaN3), pH 7.5) and 50 μl of this solution were added to the wells. The substrate degradation was followed during 50 min. […] Slopes were then calculated from the regression line drawn from the absorbance measurements and were expressed as a percentage of the sputum proteolytic activity without ISVDs.

For COC(=O)CCC(=O)N[C@@H](C)C(=O)N[C@@H](C)C(=O)N1CCC[C@H]1C(=O)N[C@H](C(=O)CCl)C(C)C [EI3, methyl 4-[[(2S)-1-[[(2S)-1-[(2S)-2-[[(3S)-1-chloro-4-methyl-2-oxopentan-3-yl]carbamoyl]pyrrolidin-1-yl]-1-oxopropan-2-yl]amino]-1-oxopropan-2-yl]amino]-4-oxobutanoate, reference compound] (MeOSuc-AAPV-CH2Cl), the “inhibition of hNE activity, elastin hydrolysis” value (hNE; [inhibitor]:[hNE] ratio 15) was 95%.

In the case of CC(C)(C)C(=O)Oc1ccc(S(=O)(=O)Nc2ccccc2C(=O)NCC(=O)O)cc1 [Sivelestat, reference compound], the “inhibition of hNE activity, elastin hydrolysis” value (hNE; [inhibitor]:[hNE] = 50) is reported as 40%.

In the case of “AAT: endogenous glycoprotein, covalent natural inhibitor of neutrophil elastase”, the “protection against hNE-induced alveolar-capillary damage” value [1] is reported as “protects the lungs from developing alveolar-capillary damage”.

B1: NbE34 (VHH)
VHH: QVQLQESGGGLVQPGGSLRLSCAASGFTLDYHAIGWFRQAPGKEREGVSCISSSGGRADYADSVKGRFTISRDNAKNTVYLQMNSLKPEDTAVYYCATRCAVVGGTYYYGMDYWGKGTQVTVSS
modifications: chemically biotinylated (sites not given)
notes: It was used to capture hNE on streptavidin beads for the panning; also called biotinylated capture ISVD NbE34
B1: binds [2].

B2: NbE201-PEG10: NbE201-Cter (linker SPSTPPTPSPSTPP + C-terminal cysteine) conjugated to linear 10 kDa PEG-maleimide (conjugate)
VHH: QVQLQESGGGLVQAGGSLRLSCVVPGRTISLYRMGWFRQAPGKEREFVAGINWSGDMTDYVDSVKGRFTISRDNAKNTVYLEMNSLKPEDTAIYYCTADPKLLPLADSSYGYWGQGTQVTVSSSPSTPPTPSPSTPPC
With B2 the “Initial concentration percentage before centrifugation” value ([3]; Agitation (1 h)) was 98 ± 1%, the “Initial concentration percentage after centrifugation” value ([3]; Agitation (1 h)) was 97 ± 2% and the “Initial concentration percentage before centrifugation” value ([3]; Agitation (4 h)) was 100 ± 1%. For the same molecule, the “Initial concentration percentage after centrifugation” value ([3]; Agitation (4 h)) was 93 ± 2%, the “Initial concentration percentage before centrifugation” value ([3]; Control) was 100 ± 0% and the “Initial concentration percentage after centrifugation” value ([3]; Control) was 94 ± 2%. The “Initial concentration percentage before centrifugation” value ([3]; F/T 5x) was 99 ± 1%, the “Initial concentration percentage after centrifugation” value ([3]; F/T 5x) was 99 ± 1% and the “Initial concentration percentage before centrifugation” value ([3]; F/T 10x) was 98 ± 2%. For the same molecule, the “Initial concentration percentage after centrifugation” value ([3]; F/T 10x) was 98 ± 1%, the “Initial concentration percentage before centrifugation” value ([3]; Nebulization) was 85 ± 2% (***) and the “Initial concentration percentage after centrifugation” value ([3]; Nebulization) was 85 ± 3%. The “average counted particles per frame (NTA)” value [4] was “far below that threshold” and the “sputum proteolytic activity inhibition at time 0, compared with NbE201” value [5] was “No significant difference”.
